No end group written: not given here.
T1: PACAP-R3 (human, UniProt P41587 24-438)
T1 sequence (looked up): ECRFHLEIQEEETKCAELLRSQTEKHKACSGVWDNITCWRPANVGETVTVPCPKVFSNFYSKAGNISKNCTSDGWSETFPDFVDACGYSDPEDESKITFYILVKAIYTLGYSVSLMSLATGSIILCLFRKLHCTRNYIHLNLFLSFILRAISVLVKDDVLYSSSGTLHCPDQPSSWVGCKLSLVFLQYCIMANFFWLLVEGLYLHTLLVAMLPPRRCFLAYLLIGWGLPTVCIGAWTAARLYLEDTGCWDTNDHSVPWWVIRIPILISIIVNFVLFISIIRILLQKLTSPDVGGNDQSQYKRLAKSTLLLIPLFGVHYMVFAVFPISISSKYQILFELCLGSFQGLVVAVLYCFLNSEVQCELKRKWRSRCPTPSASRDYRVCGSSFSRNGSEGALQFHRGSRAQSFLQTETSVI


Target: T1, PACAP-R3
Test: cell-based or functional assay

Row | R3 EC50 [nM] | R3 Selectivity | Binder
1 | 0.07 | 90 | HSDAVFTDNYTRLRKQMAAKKYLNSIKNKG [R3P158]
2 | 0.5 | 100 | HSDAVFTDNYTRLRKQMAAKKYLNSIKNPR [R3P145]
3 | 0.2 | 100 | HSDAVFTDNYTRLRKQMAAKKYLNSIKNIR [R3P141]
4 | 0.2 | 500 | HSDAVFTDNYTRLRKQMAAKKYLNSIKNKI [R3P160]
5 | 3 | 100 | HSDAVFTDNYTRLRKQMAAKKYLNSIKNNR [R3P144]
6 | 0.8 | 50 | HSDAVFTDNYTRLRKQMAAKKYLNSIKNVR [R3P150]
7 | 0.3 | 100 | HSDAVFTDNYTRLRKQMAAKKYLNSIKNSR [R3P148]
8 | 0.3 | 70 | HSDAVFTDNYTRLRKQMAAKKYLNSIKNDR [R3P136]
9 | 0.3 | 100 | HSDAVFTDNYTRLRKQMAAKKYLNSIKNER [R3P137]
10 | 0.3 | 50 | HSDAVFTDNYTRLRKQMAAKKYLNSIKNHR [R3P140]
11 | 0.2 | 200 | HSDAVFTDNYTRLRKQMAAKKYLNSIKNKA [R3P153]
12 | 0.4 | 100 | HSDAVFTDNYTRLRKQMAAKKYLNSIKNKD [R3P155]
13 | 0.2 | 50 | HSDAVFTDNYTRLRKQMAAKKYLNSIWNKR [R3P132]
14 | 0.3 | 100 | HSDAVFTDNYTRLRKQMAAKKYLNSIKNQR [R3P146]
15 | 0.2 | 300 | HSDAVFTDNYTRLRKQMAAKKYLNSIKNKK [R3P161]
16 | 1 | 100 | HSDAVFTDNYTRLRKQMAAKKYLNSIKNKE [R3P156]
17 | 0.5 | 80 | HSDAVFTDNYTRLRKQMAAKKYLNSIKNTR [R3P149]
18 | 0.2 | 30 | HSDAVFTDNYTRLRKQMAAKKYLNSIKNMR [R3P143]
19 | 1 | 40 | HSDAVFTDNYTRLRKQMAAKKYLNSITNKR [R3P130]
20 | 0.5 | 400 | HSDAVFTDNYTRLRKQMAAKKYLNSIKNKH [R3P159]
21 | 0.2 | 500 | HSDAVFTDNYTRLRKQMAAKKYLNSIKNRR [R3P147]
22 | 0.3 | 170 | HSDAVFTDNYTRLRKQMAAKKYLNSIKNKF [R3P157]
23 | 0.3 | 70 | HSDAVFTDNYTRLRKQMAAKKYLNSIVNKR [R3P131]
24 | 0.4 | – | HSDAVFTDNYTRLRKQMAAKKYLNSIKNAR [R3P134]
25 | 0.4 | 50 | HSDAVFTDNYTRLRKQMAAKKYLNSIKNGR [R3P139]
26 | 0.2 | 30 | HSDAVFTDNYTRLRKQMAAKKYLNSIKNLR [R3P142]

More lines, now with the values behind:

Row | Binder | R3 EC50 [nM] | R3 Selectivity
27 | HSDAVFTDNYTRLRKQLAAKKYLNDIKK-NH2 [R3P13] | 5 | 33
28 | HSDAVFTDNYTRLRKQMAVKKYLNSIKNKR [R3P113] | 0.3 | –
29 | HSDAVFTDNYTRLRKQMAVKKYLNDLKKGGT [R3P14] | 17 | 3
30 | HSDAVFTDNYTRLRKQMAAKKYLNSINNKR [R3P125] | 2 | 30
31 | HSDAVFTDNYTRLRKQMAAKKYLNSIANKR [R3P116] | 1 | 20
32 | HSDAVFTDNYTRLRKQMANKKYLNSIKNKR [R3P107] | 200 | –
33 | HSDAVFTDNYTRLRKQMARKKYLNSIKNKR [R3P110] | 0.5 | 200
34 | HSDAVFTDNYTRLRKQMAAKKYLNSIENKR [R3P119] | 0.5 | 30
35 | HSDAVFTDNYTRLRKQMAAKKYLNSIMNKR [R3P124] | 0.2 | –
36 | HSDAVFTDNYTRLRKQMAAKKYLNSIDNKR [R3P118] | 0.5 | 30
37 | HSDAVFTDNYTRLRKQMAAKKYLNSIGNKR [R3P121] | 1 | 50
38 | HSDAVFTDNYTRLRKQMAAKKYLNSISNKR [R3P129] | 1 | 50
39 | HSDAVFTDNYTRLRKQMAWKKYLNSIKNKR [R3P114] | 2 | 10
40 | HSDAVFTDNYTRLRKQMAPKKYLNSIKNKR [R3P108] | 300 | 3
41 | HSDAVFTDNYTRLRKQMAQKKYLNSIKNKR [R3P109] | 10 | 100
42 | HSDAVFTDNYTRLRKQMAAKKYLNSIHNKR [R3P122] | 0.2 | 50
43 | HSDAVFTDNYTRLRKQMAAKKYLNSIQNKR [R3P127] | 0.5 | 600
44 | HSDAVFTDNYTKLRKQLAAKKYLNDILNGGT [R3P11] | 3 | 3
45 | HSDAVFTDNYTRLRKQLAAKKYLNDIKKGGT [R3P12] | 0.5 | > 200
46 | HSDAVFTDNYTRLRKQMAAKKYLNSIFNKR [R3P120] | 0.2 | 50
47 | HSDAVFTDNYTRLRKQMAYKKYLNSIKNKR [R3P115] | 6 | 50
48 | HSDAVFTDNYTRLRKQMASKKYLNSIKNKR [R3P111] | 3 | 300
49 | HSDAVFTENYTKLRKQLAAKKYLNDLKKGGTSWCEPGWCR [R3P19] | 1.4 | 30
50 | HSDAVFTDNYTRLRKQMAAKKYLNSIPNKR [R3P126] | 1 | 200
51 | HSDAVFTDNYTRLRKQMAAKKYLNSIRNKR [R3P128] | 0.3 | 200
